In article PMC11209852:

B1: AP180 (natural protein)
chain: MSGQTLTDRIAAAQYSVTGSAVARAVCKATTHEVMGPKKKHLDYLIQATNETNVNIPQMADTLFERATNSSWVVVFKALVTTHHLMVHGNERFIQYLASRNTLFNLSNFLDKSGSHGYDMSTFIRRYSRYLNEKAFSYRQMAFDFARVKKGADGVMRTMAPEKLLKSMPILQGQIDALLEFDVHPNELTNGVINAAFMLLFKDLIKLFACYNDGVINLLEKFFEMKKGQCKDALEIYKRFLTRMTRVSEFLKVAEQVGIDKGDIPDLTQAPSSLMETLEQHLNTLEGKKPGNNEGSGAPSPLSKSSPATTVTSPNSTPAKTIDTSPPVDLFATASAAVPVSTSKPSSDLLDLQPDFSSGGAAAAAAPAPPPPAGGATAWGDLLGEDSLAALSSVPSEAQISDPFAPEPTPPTTTAEIATASASASTTTTVTAVTAEVDLFGDAFAASPGEAPAASEGAAAPATPTPVAAALDACSGNDPFAPSEGSAEAAPELDLFAMKPPETSVPVVTPTASTAPPVPATAPSPAPAVAAAAAATTAATAAATTTTTTSAATATTAPPALDIFGDLFESTPEVAAAPKPDAAPSIDLFSTDAFSSPPQGASPVPESSLTADLLSVDAFAAPSPATTASPAKVDSSGVIDLFGDAFGSSASEPQPASQAASSSSASADLLAGFGGSFMAPSPSPVTPAQNNLLQPNFEAAFGTTPSTSSSSSFDPSVFDGLGDLLMPTMAPAGQPAPVSMVPPSPAMAASKALGSDLDSSLASLVGNLGISGTTTKKGDLQWNAGEKKLTGGANWQPKVAPATWSAGVPPSAPLQGAVPPTSSVPPVAGAPSVGQPGAGFGMPPAGTGMPMMPQQPVMFAQPMMRPPFGAAAVPGTQLSPSPTPASQSPKKPPAKDPLADLNIKDFL
B2: auxilin (natural protein)
chain: MKDSENKGASSPDMEPSYGGGLFDMVKGGAGRLFSNLKDNLKDTLKDTSSRVIQSVTSYTKGDLDFTYVTSRIIVMSFPLDNVDIGFRNQVDDIRSFLDSRHLDHYTVYNLSPKSYRTAKFHSRVSECSWPIRQAPSLHNLFAVCRNMYNWLLQNPKNVCVVHCLDGRAASSILVGAMFIFCNLYSTPGPAIRLLYAKRPGIGLSPSHRRYLGYMCDLLADKPYRPHFKPLTIKSITVSPIPFFNKQRNGCRPYCDVLIGETKIYSTCTDFERMKEYRVQDGKIFIPLNITVQGDVVVSMYHLRSTIGSRLQAKVTNTQIFQLQFHTGFIPLDTTVLKFTKPELDACDVPEKYPQLFQVTLDVELQPHDKVIDLTPPWEHYCTKDVNPSILFSSHQEHQDTLALGGQAPIDIPPDNPRHYGQSGFFASLCWQDQKSEKSFCEEDHAALVNQESEQSDDELLTLSSPHGNANGDKPHGVKKPSKKQQEPAAPPPPEDVDLLGLEGSAMSNSFSPPAAPPTNSELLSDLFGGGGAAGPTQAGQSGVEDVFHPSGPASTQSTPRRSATSTSASPTLRVGEGATFDPFGAPSKPSGQDLLGSFLNTSSASSDPFLQPTRSPSPTVHASSTPAVNIQPDVSGGWDWHAKPGGFGMGSKSAATSPTGSSHGTPTHQSKPQTLDPFADLGTLGSSSFASKPTTPTGLGGGFPPLSSPQKASPQPMGGGWQQGGAYNWQQPQPKPQPSMPHSSPQNRPNYNVSFSAMPGGQNERGKGSSNLEGKQKAADFEDLLSGQGFNAHKDKKGPRTIAEMRKEEMAKEMDPEKLKILEWIEGKERNIRALLSTMHTVLWAGETKWKPVGMADLVTPEQVKKVYRKAVLVVHPDKATGQPYEQYAKMIFMELNDAWSEFENQGQKPLY
B3: EPS15 (natural protein)
chain: MAAAAQLSLTQLSSGNPVYEKYYRQVDTGNTGRVLASDAAAFLKKSGLPDLILGKIWDLADTDGKGILNKQEFFVALRLVACAQNGLEVSLSSLNLAVPPPRFHDTSSPLLISGTSAAELPWAVKPEDKAKYDAIFDSLSPVNGFLSGDKVKPVLLNSKLPVDILGRVWELSDIDHDGMLDRDEFAVAMFLVYCALEKEPVPMSLPPALVPPSKRKTWVVSPAEKAKYDEIFLKTDKDMDGFVSGLEVREIFLKTGLPSTLLAHIWSLCDTKDCGKLSKDQFALAFHLISQKLIKGIDPPHVLTPEMIPPSDRASLQKNIIGSSPVADFSAIKELDTLNNEIVDLQREKNNVEQDLKEKEDTIKQRTSEVQDLQDEVQRENTNLQKLQAQKQQVQELLDELDEQKAQLEEQLKEVRKKCAEEAQLISSLKAELTSQESQISTYEEELAKAREELSRLQQETAELEESVESGKAQLEPLQQHLQDSQQEISSMQMKLMEMKDLENHNSQLNWCSSPHSILVNGATDYCSLSTSSSETANLNEHVEGQSNLESEPIHQESPARSSPELLPSGVTDENEVTTAVTEKVCSELDNNRHSKEEDPFNVDSSSLTGPVADTNLDFFQSDPFVGSDPFKDDPFGKIDPFGGDPFKGSDPFASDCFFRQSTDPFATSSTDPFSAANNSSITSVETLKHNDPFAPGGTVVAASDSATDPFASVFGNESFGGGFADFSTLSKVNNEDPFRSATSSSVSNVVITKNVFEETSVKSEDEPPALPPKIGTPTRPCPLPPGKRSINKLDSPDPFKLNDPFQPFPGNDSPKEKDPEIFCDPFTSATTTTNKEADPSNFANFSAYPSEEDMIEWAKRESEREEEQRLARLNQQEQEDLELAIALSKSEISEA

The molecules below were run against GST-fused human AP-2 alpha-C (AP2A2) appendage domain, Ser923Gly (human) (UniProt O94973) (assay: pull-down).
Chain of UniProt O94973 (O94973 whole entry S923G, the tested form may be a part): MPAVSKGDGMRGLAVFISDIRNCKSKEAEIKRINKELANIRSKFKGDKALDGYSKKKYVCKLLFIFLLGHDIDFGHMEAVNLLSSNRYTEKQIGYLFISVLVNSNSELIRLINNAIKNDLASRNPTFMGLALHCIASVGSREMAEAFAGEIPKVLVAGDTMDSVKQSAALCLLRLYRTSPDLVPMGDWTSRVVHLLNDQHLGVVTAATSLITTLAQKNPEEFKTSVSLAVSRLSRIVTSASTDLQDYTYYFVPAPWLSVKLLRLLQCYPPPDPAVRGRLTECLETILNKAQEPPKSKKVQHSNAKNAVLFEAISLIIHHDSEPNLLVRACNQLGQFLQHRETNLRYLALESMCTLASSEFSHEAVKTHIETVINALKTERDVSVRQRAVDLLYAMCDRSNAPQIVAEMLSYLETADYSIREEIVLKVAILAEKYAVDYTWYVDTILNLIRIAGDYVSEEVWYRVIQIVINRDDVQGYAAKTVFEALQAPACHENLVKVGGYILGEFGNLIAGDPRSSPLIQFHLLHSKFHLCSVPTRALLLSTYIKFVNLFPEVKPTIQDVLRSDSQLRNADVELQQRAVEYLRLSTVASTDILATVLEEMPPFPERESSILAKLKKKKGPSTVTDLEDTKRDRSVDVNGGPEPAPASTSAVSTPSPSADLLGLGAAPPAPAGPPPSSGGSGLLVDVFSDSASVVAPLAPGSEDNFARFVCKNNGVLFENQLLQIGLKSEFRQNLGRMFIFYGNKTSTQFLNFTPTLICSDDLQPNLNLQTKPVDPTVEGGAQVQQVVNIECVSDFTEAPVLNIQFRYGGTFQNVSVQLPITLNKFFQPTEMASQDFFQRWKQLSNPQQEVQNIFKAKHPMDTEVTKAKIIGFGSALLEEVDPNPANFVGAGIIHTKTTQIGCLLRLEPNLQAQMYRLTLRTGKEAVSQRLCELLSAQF

In order of rising percent reduction of pulled-down signal against wildtype AP2A2-ear:
1. amphiphysin (from UniProt P49418 1-695) (natural protein)  20%
2. B3  30%
3. B2  70%
4. B1  80%
